Test system: Escherichia coli TOP10
Test: shrunken log2 fold change of peptide-encoding DNA abundance (4.5 h post-induction vs induction); higher = less antimicrobial activity (less host growth inhibition)
Settings: time post-induction: 4.5 h; library: site-saturation at positions 5, 18, 19, 20
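Further: peptides expressed intracellularly from a pBAD plasmid library in pooled LB shake-flask culture, induced with 0.3% L-arabinose, DNA abundance read by NGS, three biological replicates, DESeq2 with apeglm shrinkage.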

RRIRARPPRLPRPRPRPQFQPRP and RRIRGRPPRLPRPRPRPFAGPRP are within 0.2 log units of each other in “shrunken log2 fold change” value: 0.0187 for the first, 0.00108 for the second.

Compared with RRIRERPPRLPRPRPRPPHIPRP, RRIRWRPPRLPRPRPRPSDFPRP is higher in “shrunken log2 fold change” value: -0.366 for the first, 0.0215 for the second.

Compared with RRIRERPPRLPRPRPRPSMYPRP, RRIRFRPPRLPRPRPRPQRYPRP is higher in “shrunken log2 fold change” value: -0.516 for the first, -0.139 for the second.

RRIRVRPPRLPRPRPRPTVVPRP and RRIRRRPPRLPRPRPRPKECPRP are within 0.2 log units of each other in “shrunken log2 fold change” value: 0.0028 for the first, 0.0842 for the second.

First: RRIRERPPRLPRPRPRPNLKPRP
Second: RRIRRRPPRLPRPRPRPGSVPRP
The “shrunken log2 fold change” value of the first is lower: -0.56 for the first, 0.299 for the second.

Going from RRIRGRPPRLPRPRPRPLQLPRP to RRIRMRPPRLPRPRPRPFRNPRP, the “shrunken log2 fold change” value falls from 0.447 to -0.0431.

RRIRYRPPRLPRPRPRPRKEPRP and RRIRLRPPRLPRPRPRPCKCPRP are within 0.2 log units of each other in “shrunken log2 fold change” value: 0.00543 for the first, -0.0362 for the second.

RRIRTRPPRLPRPRPRPWEPPRP and RRIRHRPPRLPRPRPRPDRTPRP are within 0.2 log units of each other in “shrunken log2 fold change” value: -0.0542 for the first, 0.0869 for the second.

RRIRCRPPRLPRPRPRPCDYPRP and RRIRDRPPRLPRPRPRPGSFPRP are within 0.2 log units of each other in “shrunken log2 fold change” value: -0.0812 for the first, 0.0331 for the second.

Compared with RRIRLRPPRLPRPRPRPRMEPRP, RRIRIRPPRLPRPRPRPCKIPRP is lower in “shrunken log2 fold change” value: 0.123 for the first, -0.293 for the second.

RRIRTRPPRLPRPRPRPMKCPRP and RRIRDRPPRLPRPRPRPKKWPRP are within 0.2 log units of each other in “shrunken log2 fold change” value: -0.0722 for the first, -0.0255 for the second.

RRIRLRPPRLPRPRPRPAVKPRP and RRIRWRPPRLPRPRPRPIFNPRP are within 0.2 log units of each other in “shrunken log2 fold change” value: -0.131 for the first, -0.217 for the second.

RRIRNRPPRLPRPRPRPNCCPRP and RRIRTRPPRLPRPRPRPERTPRP are within 0.2 log units of each other in “shrunken log2 fold change” value: -0.124 for the first, -0.0336 for the second.

First: RRIRWRPPRLPRPRPRPCWYPRP
Second: RRIRGRPPRLPRPRPRPPWQPRP
The “shrunken log2 fold change” value of the first is lower: -0.277 for the first, 0.691 for the second.

First: RRIRERPPRLPRPRPRPGNAPRP
Second: RRIRGRPPRLPRPRPRPTGYPRP
The “shrunken log2 fold change” value of the first is lower: -0.0685 for the first, 0.559 for the second.

First: RRIRPRPPRLPRPRPRPMPCPRP
Second: RRIRVRPPRLPRPRPRPRTNPRP
The “shrunken log2 fold change” value of the first is higher: 0.0941 for the first, -0.42 for the second.

RRIRCRPPRLPRPRPRPSEAPRP and RRIRHRPPRLPRPRPRPVEGPRP are within 0.2 log units of each other in “shrunken log2 fold change” value: 0.125 for the first, 0.105 for the second.

Going from RRIRLRPPRLPRPRPRPTWAPRP to RRIRWRPPRLPRPRPRPSKHPRP, the “shrunken log2 fold change” value falls from 0.17 to -0.499.

RRIRERPPRLPRPRPRPHLCPRP and RRIRNRPPRLPRPRPRPQCDPRP are within 0.2 log units of each other in “shrunken log2 fold change” value: -0.101 for the first, -0.282 for the second.

RRIRVRPPRLPRPRPRPPAFPRP and RRIRPRPPRLPRPRPRPNEFPRP are within 0.2 log units of each other in “shrunken log2 fold change” value: 0.068 for the first, -0.0949 for the second.

RRIRKRPPRLPRPRPRPSHAPRP and RRIRPRPPRLPRPRPRPQSPPRP are within 0.2 log units of each other in “shrunken log2 fold change” value: 0.155 for the first, 0.0713 for the second.

Compared with RRIRSRPPRLPRPRPRPFMHPRP, RRIRKRPPRLPRPRPRPSYMPRP is higher in “shrunken log2 fold change” value: -0.321 for the first, -0.0995 for the second.

RRIRARPPRLPRPRPRPEVKPRP and RRIRWRPPRLPRPRPRPVPSPRP are within 0.2 log units of each other in “shrunken log2 fold change” value: 0.123 for the first, 0.058 for the second.

RRIRWRPPRLPRPRPRPKMMPRP and RRIRWRPPRLPRPRPRPMNFPRP are within 0.2 log units of each other in “shrunken log2 fold change” value: -0.106 for the first, -0.0285 for the second.

Compared with RRIRWRPPRLPRPRPRPGEDPRP, RRIRNRPPRLPRPRPRPMKIPRP is lower in “shrunken log2 fold change” value: 0.381 for the first, -0.121 for the second.

RRIRLRPPRLPRPRPRPKVSPRP and RRIRNRPPRLPRPRPRPMADPRP are within 0.2 log units of each other in “shrunken log2 fold change” value: 0.0482 for the first, 0.0252 for the second.

RRIRYRPPRLPRPRPRPQGLPRP and RRIRFRPPRLPRPRPRPEGCPRP are within 0.2 log units of each other in “shrunken log2 fold change” value: 0.0179 for the first, 0.013 for the second.

First: RRIRERPPRLPRPRPRPRPVPRP
Second: RRIRIRPPRLPRPRPRPFSEPRP
The “shrunken log2 fold change” value of the first is higher: 0.114 for the first, -0.315 for the second.

RRIRNRPPRLPRPRPRPEDAPRP and RRIRCRPPRLPRPRPRPHGMPRP are within 0.2 log units of each other in “shrunken log2 fold change” value: -0.00133 for the first, -0.114 for the second.

Compared with RRIRWRPPRLPRPRPRPLFQPRP, RRIRVRPPRLPRPRPRPFCTPRP is lower in “shrunken log2 fold change” value: -0.0127 for the first, -0.389 for the second.

RRIRYRPPRLPRPRPRPTQVPRP and RRIRYRPPRLPRPRPRPDWTPRP are within 0.2 log units of each other in “shrunken log2 fold change” value: 0.188 for the first, 0.0173 for the second.

RRIRFRPPRLPRPRPRPDNAPRP was tested, and the “shrunken log2 fold change” value was -0.167.

From the supplement of paper PMC9112550, “Optimization of the antimicrobial peptide Bac7 by deep mutational scanning” (BMC Biology, 2022)
